Test results as given in US20230135471A1, “UBIQUITIN VARIANTS WITH IMPROVED AFFINITY FOR 53BP1” (Integrated DNA Technologies, Inc., priority 2021, published 2023).

Biological target: 53BP1 fragment (a.a. 1221-1718) fused to an adenylate cyclase fragment (two-hybrid) (UniProt Q12888)
Experiment: cell-based or functional assay

Substance | Experiment 1 Average Enrichment [log2] | Experiment 1 Rep 1 Enrichment [log2] | Experiment 1 Rep 2 Enrichment [log2] | Experiment 2 Average Enrichment [log2] | Experiment 2 Rep 1 Enrichment [log2] | Experiment 2 Rep 2 Enrichment [log2]
i53 + S49M two-hybrid fusion (designed binder) | 0.84 | 1 | 0.69 | 0.77 | 0.57 | 0.98
i53 + S49N two-hybrid fusion (designed binder) | 0.04 | 0.31 | -0.23 | -0.35 | -0.59 | -0.11
i53 + S49P two-hybrid fusion (designed binder) | 0.78 | 0.65 | 0.91 | 0.58 | 0.71 | 0.44
i53 + S49V two-hybrid fusion (designed binder) | 0.52 | 0.8 | 0.23 | 0.49 | 0.52 | 0.45
i53 + S57A two-hybrid fusion (designed binder) | 0.37 | 0.29 | 0.46 | 0.03 | -0.03 | 0.08
i53 + S57D two-hybrid fusion (designed binder) | 1.22 | 1.05 | 1.39 | 0.86 | 0.89 | 0.83
i53 + S57E two-hybrid fusion (designed binder) | 0.45 | 0.28 | 0.62 | 0.35 | 0.42 | 0.28
i53 + S57H two-hybrid fusion (designed binder) | 0.72 | 0.54 | 0.9 | 0.17 | -0.04 | 0.39
i53 + S57K two-hybrid fusion (designed binder) | -0.4 | -0.22 | -0.58 | 0.15 | -0.07 | 0.36
i53 + S57M two-hybrid fusion (designed binder) | 0.01 | -0.11 | 0.12 | -0.04 | -0.17 | 0.09
i53 + S57N two-hybrid fusion (designed binder) | 1.34 | 1.72 | 0.96 | 0.69 | 0.82 | 0.56
i53 + S57Q two-hybrid fusion (designed binder) | 0.07 | 0.07 | 0.07 | 0.14 | 0.27 | 0.01
i53 + S57R two-hybrid fusion (designed binder) | 0.02 | 0.05 | -0.01 | -0.18 | -0.32 | -0.03
i53 + S65A two-hybrid fusion (designed binder) | 1.15 | 1.29 | 1.01 | 0.95 | 1.17 | 0.73
i53 + S65D two-hybrid fusion (designed binder) | 0.36 | 0.02 | 0.7 | 0.85 | 0.61 | 1.1
i53 + S65E two-hybrid fusion (designed binder) | 1.54 | 1.29 | 1.79 | 0.8 | 0.74 | 0.85
i53 + S65H two-hybrid fusion (designed binder) | 1.1 | 0.69 | 1.5 | 1.16 | 1.34 | 0.98
i53 + S65K two-hybrid fusion (designed binder) | 1.65 | 1.61 | 1.69 | 0.63 | 0.74 | 0.53
i53 + S65N two-hybrid fusion (designed binder) | 0.38 | 0.04 | 0.71 | 0.34 | 0.71 | -0.04
i53 + S65Q two-hybrid fusion (designed binder) | 0 | -0.02 | 0.02 | 0.12 | 0.01 | 0.24
i53 + S65R two-hybrid fusion (designed binder) | 1.14 | 1.15 | 1.13 | 1.1 | 1.48 | 0.72
i53 + T7C two-hybrid fusion (designed binder) | 1.2 | 1.16 | 1.23 | 0.79 | 0.9 | 0.69
i53 + T7I two-hybrid fusion (designed binder) | 1.66 | 1.7 | 1.63 | 1.03 | 1.04 | 1.02
i53 + T7L two-hybrid fusion (designed binder) | 0.61 | 0.62 | 0.61 | -0.19 | -0.07 | -0.31
i53 + T7V two-hybrid fusion (designed binder) | 0.33 | 0.24 | 0.42 | 0.02 | -0.04 | 0.09
i53 + T9E two-hybrid fusion (designed binder) | -0.04 | 0.37 | -0.44 | 0.33 | 0.02 | 0.63
